The results in this text go back to patent publication US8409577.

For this assay, the target named is T1, CD20 (human) (UniProt P11836).
T1 sequence (looked up): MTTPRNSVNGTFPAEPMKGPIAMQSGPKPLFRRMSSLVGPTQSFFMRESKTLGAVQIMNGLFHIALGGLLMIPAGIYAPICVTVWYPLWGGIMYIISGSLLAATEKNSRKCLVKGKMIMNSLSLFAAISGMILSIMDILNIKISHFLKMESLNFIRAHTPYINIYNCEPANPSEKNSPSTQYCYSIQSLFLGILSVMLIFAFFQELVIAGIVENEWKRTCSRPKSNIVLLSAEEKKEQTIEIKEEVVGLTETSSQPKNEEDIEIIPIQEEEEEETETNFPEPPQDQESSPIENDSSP
As to the kind of experiment: competition, flow cytometry on Ramos B cells; competitor PE-labeled monoclonal anti-CD20 antibody 3 ug/ml. (In general: In flow cytometry, cells or beads pass a laser one at a time.)

For “CD20×CD37 bispecific scorpion (015×016) (bispecific antibody)”, the IC50 (read off the curve) stood at 4 nM.
